US20170188835

Molecular target: iTEV(+) 3.0, infrared fluorescent Tobacco Etch Virus (TEV) protease sensor

B1: Tobacco Etch Virus (TEV) protease (protein)
chain: GESLFKGPRDYNPISSTICHLTNESDGHTTSLYGIGFGPFIITNKHLFRRNNGTLLVQSLHGVFKVKNTTTLQQHLIDGRDMIIIRMPKDFPPFPQKLKFREPQREERICLVTTNFQTKSMSSMVSDTSCTFPSSDGIFWKHWIQTKDGQCGSPLVSTRDGFIVGIHSASNFTNTNNYFTSVPKNFMELLTNQEAQQWVSGWRLNADSVLWGGHKVFMSKPEEPFQPVKEATQLMNELVYSQ
- gel electrophoresis with Coomassie blue staining (cleavage of the sensor): Two bands revealed by Coomassie blue staining correspond to N and C half of the sensor with the expected molecular weight
